For test [1], the target named is C3a (Homo sapiens (Human)) (UniProt P01024). Nature of the test: cell-based or functional assay.
The target in test [2] is C5a (Homo sapiens (Human)) (UniProt P01031). Nature of the test: cell-based or functional assay.
Chain of C5a (Homo sapiens (Human)) (P01031 678-751 limits assumed): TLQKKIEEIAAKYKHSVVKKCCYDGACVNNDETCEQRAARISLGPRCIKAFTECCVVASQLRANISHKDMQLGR

Chain of C3a (Homo sapiens (Human)) (P01024 672-748 limits assumed): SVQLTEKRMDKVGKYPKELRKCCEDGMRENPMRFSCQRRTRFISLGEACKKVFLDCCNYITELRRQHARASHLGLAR

As for “TAFI activation peptide-CPN1-HSA (enzyme)”, the results for the % Arg released (Arg LC-MS/MS, supernatant) in test [1] and in test [2] were 72% and 14%, respectively.

For the origin of these results see US20250277200A1.
